Experimental data taken from patent EP4442322A1.

Molecular target: ASGPR of the murine amino acid sequence (murine)
Test: cell-based or functional assay

Chain of ASGPR of the murine amino acid sequence (murine) (P34927 whole entry, chain 1 of 2): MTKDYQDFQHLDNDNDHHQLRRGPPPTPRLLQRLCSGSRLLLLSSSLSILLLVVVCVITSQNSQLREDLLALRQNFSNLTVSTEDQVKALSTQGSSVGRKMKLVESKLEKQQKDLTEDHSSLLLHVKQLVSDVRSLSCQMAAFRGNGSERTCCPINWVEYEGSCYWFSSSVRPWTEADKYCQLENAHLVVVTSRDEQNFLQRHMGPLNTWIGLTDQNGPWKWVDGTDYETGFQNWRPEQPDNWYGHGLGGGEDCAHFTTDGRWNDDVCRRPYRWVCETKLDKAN
Chain of ASGPR of the murine amino acid sequence (murine) (P24721 whole entry, chain 2 of 2, further chain): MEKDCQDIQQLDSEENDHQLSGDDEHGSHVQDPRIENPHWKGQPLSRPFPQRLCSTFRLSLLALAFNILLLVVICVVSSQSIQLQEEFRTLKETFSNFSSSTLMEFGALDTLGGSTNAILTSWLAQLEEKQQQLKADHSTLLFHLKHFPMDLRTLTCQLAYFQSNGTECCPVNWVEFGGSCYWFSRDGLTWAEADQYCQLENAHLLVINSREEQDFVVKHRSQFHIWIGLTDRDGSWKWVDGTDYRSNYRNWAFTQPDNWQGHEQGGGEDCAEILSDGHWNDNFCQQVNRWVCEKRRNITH

B1: CAR having the scFv of SEQ ID NO: 24 (C11), murine CD8 construct (mCD8) (protein)
chain: QIQLVQSGGGLVQPGGSLRLSCAGSGYTFSDHYMDWVRQAPGKGLEWVGRIRYKANSYSTEYAASVKGRFTISRDDSRNSLFLQMNSLKTEDTAVYYCARIRDRYYFDYWGQGALVTVSSGSASAPKLEEGEFSEARVQSVLTQPPSVSGAPGQRVTISCTGSSSNVGAGYDVHWYQQLPGAAPKLLIYGNSNRPSGVPDRFSGSKSGTSASLAISGLQSEDEADYYCAAWDDSLNGVVFGGGTKLTVLGQPKAAPSVTLFPPSSAAAGSEQKLISEEDLSHHHHHHSSVVPVLQKVNSTTTKPVLRTPSPVHPTGTSQPQRPEDCRPRGSVKGTGLDFACDIYIWAPLAGICVALLLSLIITLICYHRWTNSRRNRLLQSDYMNMTPRRPGLTRKPYQPYAPARDFAAYRPRAKFSRSAETAANLQDPNQLYNELNLGRREEYDVLEKKRARDPEMGGKQQRRRNPQEGVYNALQKDKMAEAYSEIGTKGERRRGKGHDGLYQGLSTATKDTYDALHMQTLAPR
B1 was tested. Which activated cells (GFP), Q2 (Fig. 6F) did it give?
Its activated cells (GFP), Q2 (Fig. 6F) is 4.04%.

And the activated cells (GFP), Q2 and Q3 in total (Fig. 6F)?
Its activated cells (GFP), Q2 and Q3 in total (Fig. 6F) is 9.44%.

What about the activated cells (GFP), Q3 (Fig. 6F) of the same binder?
Its activated cells (GFP), Q3 (Fig. 6F) is 5.4%.

B2: CAR having the scFv of SEQ ID NO: 26 (C3), murine Ig-construct (mIg) (protein)
chain: VHSQVTLKESGGGLVQPGGSLRLSCAASGFTFSSYAMSWVRQAPGKGLEWVSAISGSGGSTYYADSVKGRFTISRDNSKNTLYLQMNSLRAEDTAVYYCAKDLKQWLEDYWGQGTLVTVSSGSASAPKLEEGEFSEARVDVVMTQSPSTLSASVGDRVTITCRASQSIGPWLAWYQQKPGEAPKLLLYKASILEGGVPSRFSGRGSGTEFTLTISSLQPDDFATYYCQQYNTFGPTFGQGTKLEIKRTVAAPSVFDPVPRDGGCKPCICTVPRDGGCKPCICTVPEVSSVFIFPPKPKDVLTITLTPKVTCVVVDISKDDPEVQFSWFVDDVEVHTAQTQPREEQFNSTFRSVSELPIMHQDWLNGKEFKCRVNSAAFPAPIEKTISKTKGRPKAPQVCTIPPPKEQMAKDKVSLTCMITDFFPEDITVEWQWNGQPAENYKNTQPIMDTDGSYFVYSKLNVQKSNWEAGNTFTCSVLHEGLHNHHTEKSLSHSPGVFLACVLGGSFGFLGFLGLCILCCVNSRRNRLLQSDYMNMTPRRPGLTRKPYQPYAPARDFAAYRPLRAKFSRSAETAANLQDPNQLYNELNLGRREEYDVLEKKRARDPEMGGKQQRRRNPQEGVYNALQKDKMAEAYSEIGTKGERRRGKGHDGLYQGLSTATKDTYDALHMQTLAPR
For B2, which activated cells (GFP), Q2 (Fig. 9E) is on record?
The activated cells (GFP), Q2 (Fig. 9E) was 3.7%.

And the activated cells (GFP), Q2 and Q3 in total (Fig. 9E)?
Its activated cells (GFP), Q2 and Q3 in total (Fig. 9E) is 6.06%.

What about the activated cells (GFP), Q3 (Fig. 9E) of the same binder?
The activated cells (GFP), Q3 (Fig. 9E) was 2.36%.

B3: CAR having the scFv of SEQ ID NO: 24 (C11), murine Ig-construct (mIg) (protein)
chain: QIQLVQSGGGLVQPGGSLRLSCAGSGYTFSDHYMDWVRQAPGKGLEWVGRIRYKANSYSTEYAASVKGRFTISRDDSRNSLFLQMNSLKTEDTAVYYCARIRDRYYFDYWGQGALVTVSSGSASAPKLEEGEFSEARVQSVLTQPPSVSGAPGQRVTISCTGSSSNVGAGYDVHWYQQLPGAAPKLLIYGNSNRPSGVPDRFSGSKSGTSASLAISGLQSEDEADYYCAAWDDSLNGVVFGGGTKLTVLGQPKAAPSVTLFPPSSAAAGSEQKLISEEDLSHHHHHHVPRDGGCKPCICTVPEVSSVFIFPPKPKDVLTITLTPKVTCVVVDISKDDPEVQFSWFVDDVEVHTAQTQPREEQFNSTFRSVSELPIMHQDWLNGKEFKCRVNSAAFPAPIEKTISKTKGRPKAPQVCTIPPPKEQMAKDKVSLTCMITDFFPEDITVEWQWNGQPAENYKNTQPIMDTDGSYFVYSKLNVQKSNWEAGNTFTCSVLHEGLHNHHTEKSLSHSPGVFLACVLGGSFGFLGFLGLCILCCVNSRRNRLLQSDYMNMTPRRPGLTRKPYQPYAPARDFAAYRPLRAKFSRSAETAANLQDPNQLYNELNLGRREEYDVLEKKRARDPEMGGKQQRRRNPQEGVYNALQKDKMAEAYSEIGTKGERRRGKGHDGLYQGLSTATKDTYDALHMQTLAPR
With B3 as the binder, how does the activated cells (GFP), Q2 (Fig. 6E) read?
Its activated cells (GFP), Q2 (Fig. 6E) is 3.41%.

What about the activated cells (GFP), Q2 and Q3 in total (Fig. 6E) of the same binder?
Its activated cells (GFP), Q2 and Q3 in total (Fig. 6E) is 13.3%.

What about the activated cells (GFP), Q3 (Fig. 6E) of the same binder?
Its activated cells (GFP), Q3 (Fig. 6E) is 9.86%.
